Legend:
Type in all cases: biochemical
[1] = Conversion of Hipp-Arg to hippuric acid by mutant and native human CPB, HPLC assay (Example 6); conditions: 5 hr at 37° C.; 4 μg enzyme
Procedure: (§1) Purified mutants of human CPB (D253K and D253R; Examples 1-3) and native human CPB, produced as described in Reference Example 12, were assayed for their ability to convert either hippuryl-L-aspartic acid (Hipp-Asp—Reference Example 2), hippuryl-L-glutamic acid (Hipp-Glu—Reference Example 1) or hippuryl-L-arginine (Sigma Chemical Company—cat no. H6625) to hippuric acid using a HPLC based assay.
(§2) The reaction mixture (250 μl) contained 4 μg human CPB (native or mutant) and 0.5 mM Hipp-Asp or Hipp-Glu in 0.025 M Tris-HCL, pH 7.5. Samples were incubated for 5 hr at 37° C. The reactions were terminated by the addition of 250 μl of 80% methanol, 20% distilled water, 0.2% trifluoro acetic acid and the amount of hippuric acid generated was quantified by HPLC.
(§3) HPLC analysis was carried out using a Hewlett Packard 1090 Series 11 (with diode array) HPLC system. Samples (50 μl) were injected onto a Hichrom Hi-RPB column (25 cm) and separated using a mobile phase of 40% methanol, 60% distilled water, 0.1% trifluoro acetic acid at a flow rate of 1 ml/min. The amount of product (hippuric acid) produced was determined from calibration curves generated with known amounts of hippuric acid (Sigma-H6375). The results are shown in Table 1 and are expressed as the percentage conversion of substrate into product in 5 hr at 37° C. with 4 μg enzyme.

[2] = Conversion of Hipp-Glu to hippuric acid by mutant and native human CPB, HPLC assay (Example 6); conditions: 5 hr at 37° C.; 4 μg enzyme; 0.5 mM substrate
Procedure: as §1, §2, §3

[3] = Conversion of prodrug of Example 24 to drug of Example 25 by HCPB mutants, HPLC (Example 20); conditions: enzyme 15 μg/ml; 0.5 mM prodrug of Example 24; 5 minutes at 37° C.
Procedure: The reaction was stopped by adding MeCN (500 μl) plus 0.2% Trifluoroacetic acid. The amount of drug produced was then quantified by HPLC.
HPLC separation was carried out as described in Example 6 except that a mobile phase of 70% MeCN, 30% distilled water and 0.1% trifluoroacetic acid was used to achieve separation of prodrug (retention time 3.8 minutes) and drug (retention time 4.9 minutes) and the compounds were detected at 260 nm. The amount of drug produced was quantified from calibration curves generated with known amounts of drug.
The amount of [Q54R,D145A,D253K]HCPB and [G251T,D253K]HCPB mutants was reduced to 0.75 μg in the reaction mixture.

[4] = Conversion of Hipp-Asp to hippuric acid by mutant and native human CPB, HPLC assay (Example 6); conditions: 5 hr at 37° C.; 4 μg enzyme; 0.5 mM substrate
Procedure: as §1, §2, §3

[5] = Conversion of Hipp-Asp by purified HCPB mutants, 30 minutes, HPLC (Example 17); conditions: 0.5 mM substrate, 30 minutes at 37° C.
Procedure: (§4) Purified mutants of human CPB (D253K; [G251K,D253R]; [G251N,D253R]; [I201S,D253K]; [G251N,D253K]; [Q54R,D145A,D253K]; [G251T,D253K]; [G251S,D253K]; [A248N,G251N,D253K]; [A248S,G251N,D253K] and [S205N,G251N,D253K]—described in Examples 3, 12, 13, 16, 28, 30, 31, 32 and 33) were assayed for their ability to convert hippuryl-L-glutamic acid (Hipp-Glu—Reference Example 1), hippuryl-L-aspartic acid (Hipp-Asp—Reference Example 2) and hippuryl-L-arginine (Sigma Chemical Company—cat no. H6625) to hippuric acid using a HPLC based assay similar to that described in Example 6.
(§5) Samples were incubated for 30 minutes at 37° C. The reactions were terminated by the addition of 500 μl of 40% methanol, 60% distilled water, 0.2% trifluoro acetic acid and the amount of hippuric acid generated was quantitated by HPLC as described in Example 6 but using a mobile phase of 20% methanol, 80% 50 mM phosphate buffer, pH 6.5. Hippuric acid was detected at 230 nm. The results are shown in Table 5 and are expressed as the percentage conversion of substrate into product in 30 minutes at 37° C.

[6] = Activity against Hipp-Asp in crude E. coli periplasmic shockate relative to D253K or D253R HCPB (Example 16)
Source text: A number of other mutant HCPBs have been constructed in a similar manner to the methods described in Reference Examples 7 and 8, and Examples 12, 13, 14 and 15. In each case oligos were constructed to introduce specific changes in the gene sequence by methods similar to those described above. In some cases additional mutations were identified upon complete sequencing of the mutated gene, and these were presumably introduced during the PCR reactions. Mutants with enzyme activity against substrate analogues (see Example 18 below) have been identified, and examples of these are given in Table 4 below. […] This material is subsequently referred to as periplasmic shockate or shockate and is prepared by the following procedure.
1. A single colony was used to inoculate 75 ml of L-broth nutrient media containing 10 μg/ml tetracycline and arabinose to a final concentration of 0.01% (w/v). Incubation was performed at 20° C. with shaking (250 rpm) for about 60 hours.
2. The cells were then harvested by centrifugation at 4° C.
3. The cell pellet was re-suspended in 300 micro-liters of 20% sucrose (w/v) containing 1 mM EDTA in 200 mM Tris-HCl at pH7.5, and incubated at room-temperature for 15 minutes.
4. Periplasmic shockate was generated by the addition of 450 micro-liters of distilled water, and a further incubation at room-temperature for 15 minutes.
5. Cellular remains were removed by centrifugation, and the supernatant assayed for enzyme activity as soon as possible after preparation and kept at 4° C. prior to assay.
The activity of [G251T,D253K]HCPB was measured using the assay conditions described in Example 17 but using either 50 μl of a neat or 1 in 10 or 1 in 100 dilution of [G251T,D253K]HCPB crude E.coli periplasmic shockate (shockate) sample in place of purified enzyme. Samples were incubated for 24 h at 37° C. […] For other HCPB mutants, the reaction volume was 250 μl and contained 125 μl of neat shockate or 1 in 50 dilution of shockate. The shockate samples were prepared as described in Example 16. The amount of Hippuric acid produced in 24 h was quantified by HPLC as described in Example 17 and the results are shown in Table 6 and are expressed as the percentage conversion of substrate into product in 24 h at 37° C.

[7] = Conversion of Hipp-Arg by purified HCPB mutants, 30 minutes, HPLC (Example 17); conditions: 0.5 mM substrate, 30 minutes at 37° C.
Procedure: as §4, §5

[8] = Conversion of Hipp-Glu by purified HCPB mutants, 30 minutes, HPLC (Example 17); conditions: 0.5 mM substrate, 30 minutes at 37° C.
Procedure: as §4, §5

Molecule	Hipp-Arg (% conversion to Hippuric acid) [1] [%]	Hipp-Glu (% conversion to Hippuric acid) [2] [%]	Prodrug Hydrolysis (%) [3] [%]	Hipp-Asp (% conversion to Hippuric acid) [4] [%]	Hipp-Asp (% conversion) ([5]; enzyme 2.5 μg/ml) [%]	Hipp-Asp (% conversion) ([5]; enzyme 25 μg/ml) [%]	Hipp-Asp, activity relative to D253K HCPB or D253R HCPB [6]	Hipp-Arg (% conversion) ([7]; enzyme 2.5 μg/ml) [%]	Hipp-Arg (% conversion) ([7]; enzyme 25 μg/ml) [%]	Hipp-Glu (% conversion) ([8]; enzyme 2.5 μg/ml) [%]	Hipp-Glu (% conversion) ([8]; enzyme 25 μg/ml) [%]
D253R HCPB: mature HCPB with aspartate 253 changed to arginine, C-terminal (His)6-c-myc tag (protein, UniProt P15086 111-417, looked up, variant D253R, (His)6-c-myc tag) Carboxypeptidase B: ATGHSYEKYNKWETIEAWTQQVATENPALISRSVIGTTFEGRAIYLLKVGKAGQNKPAIFMDCGFHAREWISPAFCQWFVREAVRTYGREIQVTELLDKLDFYVLPVLNIDGYIYTWTKSRFWRKTRSTHTGSSCIGTDPNRNFDAGWCEIGASRNPCDETYCGPAAESEKETKALADFIRNKLSSIKAYLTIHSYSQMMIYPYSYAYKLGENNAELNALAKATVKELASLHGTKYTYGPGATTIYPAAGGSRDWAYDQGIRYSFTFELRDTGRYGFLLPESQIRATCEETFLAIKYVASYVLEHLY	3	52	18.3	72	–	–	–	–	–	–	–
[G251K, D253R]: HCPB mutant with G251K and D253R (protein, UniProt P15086 111-417, looked up, variant G251K D253R) Carboxypeptidase B: ATGHSYEKYNKWETIEAWTQQVATENPALISRSVIGTTFEGRAIYLLKVGKAGQNKPAIFMDCGFHAREWISPAFCQWFVREAVRTYGREIQVTELLDKLDFYVLPVLNIDGYIYTWTKSRFWRKTRSTHTGSSCIGTDPNRNFDAGWCEIGASRNPCDETYCGPAAESEKETKALADFIRNKLSSIKAYLTIHSYSQMMIYPYSYAYKLGENNAELNALAKATVKELASLHGTKYTYGPGATTIYPAAGKSRDWAYDQGIRYSFTFELRDTGRYGFLLPESQIRATCEETFLAIKYVASYVLEHLY	–	–	16.2	–	0.2	0.2	NAD (No activity detected)	0	0	3.2	5.5

— patent US6436691B1, “Chemical compounds” (Zeneca Limited, priority 1995, dated 2002)
